Assay results reported in paper PMC3365488 (Biochemistry, 2012).

Target: T1, CheY complexed with the unlinked CheA P2 domain (E. coli, UniProt P0AE67 1-129; P07363 156-229)
T1 sequence (looked up) 1: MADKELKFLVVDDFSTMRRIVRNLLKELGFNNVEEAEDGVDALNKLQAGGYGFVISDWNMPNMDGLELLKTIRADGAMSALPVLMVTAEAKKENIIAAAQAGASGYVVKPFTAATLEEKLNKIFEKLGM
T1 sequence (looked up) 2: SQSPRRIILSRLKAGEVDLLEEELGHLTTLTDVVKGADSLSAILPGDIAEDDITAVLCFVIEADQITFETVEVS
Assay: NMR titration

B1: CheA P1 domain (residues 1-134) (domain or fragment, E. coli, UniProt P07363 1-134, looked up)
chain: MSMDISDFYQTFFDEADELLADMEQHLLVLQPEAPDAEQLNAIFRAAHSIKGGAGTFGFSVLQETTHLMENLLDEARRGEMQLNTDIINLFLETKDIMQEQLDAYKQSQEPDAASFDYICQALRQLALEAKGET
Q: For B1, which Kd is on record?
A: The Kd was about 4.5 mM.
